Patent publication US6682731 (LUDWIG INSTITUTE FOR CANCER RESEARCH, dated 2004)

Biological target: T1, HLA-A2 molecule (MHC class I heterodimer, no peptide of the filing added) (human)
T1 construct: as control target of the CTL assays it stood on T2 cells without added peptide or on COS-7 cells transfected with HLA-A2 alone; The subtype is printed only as HLA-A2.01 for the transfected gene; also called HLA-A2.01; MHC class-I molecule
Test: HLA-A2 assembly/stabilisation in 0.174 cell lysate with 10 and 20 uM peptide, immunoprecipitation with mAb BB7.2, gel
Protocol: It is an HLA-A2 presenting cell line deficient in the pathway which supplies peptides to the endoplasmic reticulum, the site of assembly of MHC class-I heterodimers. The cell line can assemble MHC class-I molecules, but these are unstable and, on cell lysis, dissociate into free heavy and light chains during overnight incubation. The heterodimers can, however, be stabilized in vitro via addition of appropriate peptide ligands. […] Thus, the stabilized molecules can be immunoprecipitated with antibodies specific for the MHC class-I molecule.
In the first part of these experiments, peptides were tested to determine if they facilitated assembly of HLA-A2 in the cell line. […] The cells were then washed, once, with phosphate buffered saline, and then resuspended in 10 ml of lysis buffer (0.5% NP-40; 0.5% Mega 9, 150 mM NaCl, 5 mM EDTA, 50 mM Tris [pH 7.5], 2 mM phenylmethylsulfonylfluoride, 5 mM iodoacetamide). The lysates were then incubated with peptide (10 μM and 20 μM), for 15–18 hours. Nuclei were then pelleted in a microfuge, and the lysates were precleared, overnight, at 4° C. with 0.2 ml of washed, 10% (w/v) Staphylococcus A organisms. […] The mixtures were incubated for 90 minutes on ice, followed by addition of bovine serum albumin to 1% (w/v), and 100 ul of 5% (w/v) protein-A Sepharose beads.

TLVEVTLGEV [peptide SEQ ID NO: 7, Thr Leu Val Glu Val Thr Leu Gly Glu Val]
binding result: binds
